The text below walks through data of IntAct's records for PubMed 31515488.

Among the targets are efs_human EFS (UniProt O43281); stat3_human STAT3 (UniProt P40763); pgbd1_human PGBD1 (UniProt Q96JS3); zn446_human ZNF446 (UniProt Q9NWS9); zn496_human ZNF496 (UniProt Q96IT1); zsc32_human ZSCAN32 (UniProt Q9NX65); prdc1_human PRTFDC1 (UniProt Q9NRG1); sdcb1_human SDCBP (UniProt O00560); tri23_human TRIM23 (UniProt P36406); S100A1 (UniProt P23297); ubql1_human UBQLN1 (UniProt Q9UMX0); atrap_human AGTRAP (UniProt Q6RW13); reep6_human REEP6 (UniProt Q96HR9); tfp11_human TFIP11 (UniProt Q9UBB9); jkip2_human JAKMIP2 (UniProt Q96AA8); nf2l2_human NFE2L2 (UniProt Q16236); ccdb1_human CCNDBP1 (UniProt O95273); pygm_human PYGM (UniProt P11217); lztl1_human LZTFL1 (UniProt Q9NQ48); ei2ba_human EIF2B1 (UniProt Q14232); cdd_human CDA (UniProt P32320); dhb14_human HSD17B14 (UniProt Q9BPX1); dctp1_human DCTPP1 (UniProt Q9H773); actg_human ACTG1 (UniProt P63261); tolip_human TOLLIP (UniProt Q9H0E2); rpia_human RPIA (UniProt P49247); nud14_human NUDT14 (UniProt O95848); mtnb_human APIP (UniProt Q96GX9); CCDC102B (UniProt Q68D86); lonf1_human LONRF1 (UniProt Q17RB8); pnma1_human PNMA1 (UniProt Q8ND90); actb_human ACTB (UniProt P60709); pnma5_human PNMA5 (UniProt Q96PV4); cryaa_human CRYAA (UniProt P02489); prps2_human PRPS2 (UniProt P11908); dnja3_human DNAJA3 (UniProt Q96EY1); mif_human MIF (UniProt P14174); ca050_human C1orf50 (UniProt Q9BV19); gnmt_human GNMT (UniProt Q14749); TSC22D1 (UniProt Q15714); kctd1_human KCTD1 (UniProt Q719H9); mbip1_human MBIP (UniProt Q9NS73); ncoa5_human NCOA5 (UniProt Q9HCD5); thap1_human THAP1 (UniProt Q9NVV9); birc2_human BIRC2 (UniProt Q13490); vac14_human VAC14 (UniProt Q08AM6); edad_human EDARADD (UniProt Q8WWZ3); ndka_human NME1 (UniProt P15531); gas7_human GAS7 (UniProt O60861); cdr2_human CDR2 (UniProt Q01850); naif1_human NAIF1 (UniProt Q69YI7); cdkl3_human CDKL3 (UniProt Q8IVW4); FBP1 (UniProt P09467); ptps_human PTS (UniProt Q03393); scel_human SCEL (UniProt O95171); phs_human PCBD1 (UniProt P61457); lcp2_human LCP2 (UniProt Q13094); ap2m1_human AP2M1 (UniProt Q96CW1); pram_human PRAM1 (UniProt Q96QH2); tb22b_human TBC1D22B (UniProt Q9NU19).

A further assay addresses T1, rhxf2_human RHOXF2 (UniProt Q9BQY4).
T1 sequence: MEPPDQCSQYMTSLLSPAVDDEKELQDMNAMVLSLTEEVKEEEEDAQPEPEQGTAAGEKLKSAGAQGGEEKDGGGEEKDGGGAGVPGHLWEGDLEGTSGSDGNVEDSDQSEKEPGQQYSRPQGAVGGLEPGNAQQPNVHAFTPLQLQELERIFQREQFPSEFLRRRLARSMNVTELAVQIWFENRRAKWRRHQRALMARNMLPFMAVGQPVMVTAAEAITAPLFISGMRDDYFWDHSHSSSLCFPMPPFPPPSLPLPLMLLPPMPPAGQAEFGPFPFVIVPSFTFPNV

In a further assay the target is T2, odam_human ODAM (UniProt A1E959).
T2 sequence: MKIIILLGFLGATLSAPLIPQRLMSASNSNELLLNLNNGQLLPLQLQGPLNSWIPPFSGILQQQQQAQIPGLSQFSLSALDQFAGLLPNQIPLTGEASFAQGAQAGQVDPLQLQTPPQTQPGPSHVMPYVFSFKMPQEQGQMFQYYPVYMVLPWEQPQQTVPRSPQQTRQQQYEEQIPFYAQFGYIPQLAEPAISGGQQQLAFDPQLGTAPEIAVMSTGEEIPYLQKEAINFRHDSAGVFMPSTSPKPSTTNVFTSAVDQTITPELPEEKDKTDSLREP

Assay [1] has as its target frih_human FTH1 (UniProt P02794).
Assay [2] has the same target. The source holds these as a separate data set.

Chain of Zinc finger and SCAN domain-containing protein 22 (Homo sapiens), P10073 A321V (P10073 whole entry A321V, the tested form may be a part): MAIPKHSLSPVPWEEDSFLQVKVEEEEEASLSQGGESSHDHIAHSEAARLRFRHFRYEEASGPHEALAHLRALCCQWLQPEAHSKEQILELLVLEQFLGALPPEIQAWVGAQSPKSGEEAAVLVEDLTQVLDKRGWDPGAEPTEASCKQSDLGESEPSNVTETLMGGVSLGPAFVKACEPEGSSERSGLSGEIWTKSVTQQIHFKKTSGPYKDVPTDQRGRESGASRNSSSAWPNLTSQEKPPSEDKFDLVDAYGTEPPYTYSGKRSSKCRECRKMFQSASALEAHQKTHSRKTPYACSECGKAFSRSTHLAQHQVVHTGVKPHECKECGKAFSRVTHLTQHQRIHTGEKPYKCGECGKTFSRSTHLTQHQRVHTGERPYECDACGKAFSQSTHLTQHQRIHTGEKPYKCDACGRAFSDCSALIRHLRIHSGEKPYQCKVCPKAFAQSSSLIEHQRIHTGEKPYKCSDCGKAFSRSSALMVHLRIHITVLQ
Chain of Troponin T, slow skeletal muscle (Homo sapiens), P13805 R39S (P13805 whole entry R39S): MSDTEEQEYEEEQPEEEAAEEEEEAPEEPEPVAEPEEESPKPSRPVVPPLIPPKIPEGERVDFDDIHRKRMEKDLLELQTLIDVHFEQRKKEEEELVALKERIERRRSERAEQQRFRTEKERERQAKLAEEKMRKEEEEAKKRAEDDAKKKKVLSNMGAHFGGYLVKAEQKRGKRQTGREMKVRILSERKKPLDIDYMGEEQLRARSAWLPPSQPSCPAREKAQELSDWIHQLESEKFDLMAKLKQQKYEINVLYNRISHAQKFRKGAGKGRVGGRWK
Chain of FAD synthase (Homo sapiens), Q8NFF5 R228H (Q8NFF5 whole entry R228H): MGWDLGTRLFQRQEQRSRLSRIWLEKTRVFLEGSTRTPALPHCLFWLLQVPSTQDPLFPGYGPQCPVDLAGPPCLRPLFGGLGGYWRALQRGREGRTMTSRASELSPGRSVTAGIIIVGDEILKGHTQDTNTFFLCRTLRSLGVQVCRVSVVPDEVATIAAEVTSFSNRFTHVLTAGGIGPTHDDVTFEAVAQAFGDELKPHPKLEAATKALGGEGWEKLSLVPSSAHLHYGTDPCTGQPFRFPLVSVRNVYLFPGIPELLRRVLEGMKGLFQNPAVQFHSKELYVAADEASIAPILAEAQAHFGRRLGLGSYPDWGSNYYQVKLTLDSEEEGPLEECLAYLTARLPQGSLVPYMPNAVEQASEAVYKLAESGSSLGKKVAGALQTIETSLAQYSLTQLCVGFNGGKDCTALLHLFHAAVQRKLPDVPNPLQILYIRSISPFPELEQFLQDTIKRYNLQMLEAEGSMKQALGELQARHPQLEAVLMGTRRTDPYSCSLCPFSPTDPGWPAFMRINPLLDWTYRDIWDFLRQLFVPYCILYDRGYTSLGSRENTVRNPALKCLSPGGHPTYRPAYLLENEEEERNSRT
Chain of Tyrosine-protein kinase Blk (Homo sapiens), P51451 A71T (P51451 whole entry A71T): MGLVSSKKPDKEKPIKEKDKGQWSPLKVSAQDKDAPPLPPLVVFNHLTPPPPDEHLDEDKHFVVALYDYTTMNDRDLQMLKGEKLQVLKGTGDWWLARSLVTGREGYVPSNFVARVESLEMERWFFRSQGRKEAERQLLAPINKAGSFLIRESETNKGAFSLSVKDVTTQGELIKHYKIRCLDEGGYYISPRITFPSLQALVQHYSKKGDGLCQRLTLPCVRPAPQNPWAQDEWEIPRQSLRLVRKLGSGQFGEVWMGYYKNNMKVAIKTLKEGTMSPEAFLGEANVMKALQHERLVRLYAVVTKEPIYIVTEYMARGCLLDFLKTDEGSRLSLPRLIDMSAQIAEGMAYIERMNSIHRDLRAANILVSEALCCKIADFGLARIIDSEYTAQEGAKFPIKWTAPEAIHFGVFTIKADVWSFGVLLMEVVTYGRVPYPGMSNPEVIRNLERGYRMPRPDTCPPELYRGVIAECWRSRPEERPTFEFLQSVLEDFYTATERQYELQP
Chain of Protein S100-A2 (Homo sapiens), P29034 S62N (P29034 whole entry S62N): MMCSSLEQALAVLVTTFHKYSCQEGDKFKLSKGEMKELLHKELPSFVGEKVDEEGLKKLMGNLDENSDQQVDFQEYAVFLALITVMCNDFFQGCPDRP
Chain of tb22b_human TBC1D22B (Q9NU19 whole entry): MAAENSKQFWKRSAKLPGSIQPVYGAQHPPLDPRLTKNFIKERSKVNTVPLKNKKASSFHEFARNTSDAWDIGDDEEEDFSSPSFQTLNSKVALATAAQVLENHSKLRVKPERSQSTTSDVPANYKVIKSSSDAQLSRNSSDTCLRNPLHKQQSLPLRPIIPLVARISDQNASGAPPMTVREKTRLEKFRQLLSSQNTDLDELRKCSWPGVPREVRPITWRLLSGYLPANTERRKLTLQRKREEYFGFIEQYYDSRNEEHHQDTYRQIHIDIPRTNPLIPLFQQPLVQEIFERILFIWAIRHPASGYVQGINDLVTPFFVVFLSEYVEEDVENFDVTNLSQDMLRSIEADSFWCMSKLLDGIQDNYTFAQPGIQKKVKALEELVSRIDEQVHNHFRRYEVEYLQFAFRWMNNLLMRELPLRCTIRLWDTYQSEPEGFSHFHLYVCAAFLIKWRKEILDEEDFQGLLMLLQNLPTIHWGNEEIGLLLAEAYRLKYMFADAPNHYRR
Chain of mtnb_human APIP (Q96GX9 whole entry): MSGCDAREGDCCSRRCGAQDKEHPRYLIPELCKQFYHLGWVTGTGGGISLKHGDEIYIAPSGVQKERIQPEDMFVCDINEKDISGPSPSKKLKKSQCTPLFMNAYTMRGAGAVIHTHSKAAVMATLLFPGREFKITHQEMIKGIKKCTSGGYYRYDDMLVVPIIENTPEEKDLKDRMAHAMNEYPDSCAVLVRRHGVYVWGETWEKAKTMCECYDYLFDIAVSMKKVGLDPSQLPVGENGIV
Chain of vac14_human VAC14 (Q08AM6 whole entry): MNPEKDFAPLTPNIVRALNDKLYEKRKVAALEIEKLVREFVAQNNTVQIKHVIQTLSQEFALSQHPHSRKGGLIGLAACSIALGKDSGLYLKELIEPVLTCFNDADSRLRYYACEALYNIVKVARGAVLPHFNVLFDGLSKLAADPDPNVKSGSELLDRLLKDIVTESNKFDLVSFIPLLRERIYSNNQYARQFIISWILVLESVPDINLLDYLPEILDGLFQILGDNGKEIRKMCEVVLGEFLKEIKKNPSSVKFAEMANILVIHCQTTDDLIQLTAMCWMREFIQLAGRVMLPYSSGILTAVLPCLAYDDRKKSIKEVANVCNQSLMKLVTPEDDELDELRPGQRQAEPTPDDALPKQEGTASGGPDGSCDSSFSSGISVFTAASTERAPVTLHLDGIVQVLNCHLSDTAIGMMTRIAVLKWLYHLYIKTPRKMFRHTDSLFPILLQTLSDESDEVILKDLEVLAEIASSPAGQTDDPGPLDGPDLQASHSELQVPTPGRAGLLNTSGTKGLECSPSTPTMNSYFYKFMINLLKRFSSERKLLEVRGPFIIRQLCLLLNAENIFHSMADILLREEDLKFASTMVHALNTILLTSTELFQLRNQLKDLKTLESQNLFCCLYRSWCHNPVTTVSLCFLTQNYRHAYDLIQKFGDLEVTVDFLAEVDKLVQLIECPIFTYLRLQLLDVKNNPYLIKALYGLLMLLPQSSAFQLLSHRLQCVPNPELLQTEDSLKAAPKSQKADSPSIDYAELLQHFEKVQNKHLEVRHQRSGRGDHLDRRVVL
Chain of gas7_human GAS7 (O60861 whole entry): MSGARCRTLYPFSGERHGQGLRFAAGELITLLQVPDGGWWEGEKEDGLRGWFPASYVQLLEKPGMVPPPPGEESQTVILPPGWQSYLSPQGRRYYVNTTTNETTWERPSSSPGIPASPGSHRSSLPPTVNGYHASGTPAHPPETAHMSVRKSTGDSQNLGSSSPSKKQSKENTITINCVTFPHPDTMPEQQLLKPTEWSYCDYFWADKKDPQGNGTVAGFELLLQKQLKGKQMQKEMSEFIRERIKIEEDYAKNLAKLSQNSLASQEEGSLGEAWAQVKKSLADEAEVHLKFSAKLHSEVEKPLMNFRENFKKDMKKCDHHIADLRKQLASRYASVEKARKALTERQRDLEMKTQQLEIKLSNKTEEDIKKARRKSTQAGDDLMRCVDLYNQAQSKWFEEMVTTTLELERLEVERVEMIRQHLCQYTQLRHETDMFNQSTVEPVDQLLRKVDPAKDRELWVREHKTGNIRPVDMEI
Chain of zsc32_human ZSCAN32 (Q9NX65 whole entry): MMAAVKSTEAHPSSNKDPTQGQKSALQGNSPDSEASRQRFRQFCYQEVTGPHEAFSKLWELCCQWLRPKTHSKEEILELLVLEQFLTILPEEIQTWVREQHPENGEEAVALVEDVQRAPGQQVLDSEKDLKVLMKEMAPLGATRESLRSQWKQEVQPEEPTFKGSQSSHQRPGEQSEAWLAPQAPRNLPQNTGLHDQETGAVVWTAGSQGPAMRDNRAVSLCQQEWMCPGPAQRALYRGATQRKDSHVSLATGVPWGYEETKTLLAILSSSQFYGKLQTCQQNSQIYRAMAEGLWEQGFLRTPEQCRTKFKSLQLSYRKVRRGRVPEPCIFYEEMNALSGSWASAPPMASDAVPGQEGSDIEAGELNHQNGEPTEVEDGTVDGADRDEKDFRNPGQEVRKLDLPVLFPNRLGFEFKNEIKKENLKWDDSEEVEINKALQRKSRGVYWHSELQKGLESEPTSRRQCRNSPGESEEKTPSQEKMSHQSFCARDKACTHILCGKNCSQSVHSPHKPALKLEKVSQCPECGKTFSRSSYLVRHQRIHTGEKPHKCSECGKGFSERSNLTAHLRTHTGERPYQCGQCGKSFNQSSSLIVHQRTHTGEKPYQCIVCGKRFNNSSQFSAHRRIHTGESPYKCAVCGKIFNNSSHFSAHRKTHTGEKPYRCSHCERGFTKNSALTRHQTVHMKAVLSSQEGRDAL
Chain of cryaa_human CRYAA (P02489 whole entry): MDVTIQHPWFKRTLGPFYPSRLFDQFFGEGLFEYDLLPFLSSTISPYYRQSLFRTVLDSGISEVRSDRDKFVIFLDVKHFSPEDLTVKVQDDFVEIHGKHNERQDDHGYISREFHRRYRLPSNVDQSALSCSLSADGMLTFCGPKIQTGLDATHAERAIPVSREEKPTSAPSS
Chain of S100A1 (P23297 whole entry): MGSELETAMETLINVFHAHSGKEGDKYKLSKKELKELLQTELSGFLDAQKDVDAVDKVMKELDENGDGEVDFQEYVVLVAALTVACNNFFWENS

Consider “Tyrosine-protein kinase Blk (Homo sapiens), P51451 A71T”, for which the “effect of a mutation on the interaction” value in the assay with efs_human EFS and with stat3_human STAT3 was “with no effect” each time.
As for “Toll-interacting protein (Homo sapiens) (from UniProt Q9H0E2) A222S”, the “effect of a mutation on the interaction” value in the assay with rhxf2_human RHOXF2 and with odam_human ODAM was “with no effect” each time.
As for “Zinc finger and SCAN domain-containing protein 22 (Homo sapiens), P10073 A321V”, the “effect of a mutation on the interaction” value in the assay with pgbd1_human PGBD1, with zn446_human ZNF446, in the assay with zn496_human ZNF496 and in the assay with zsc32_human ZSCAN32 was “with no effect” throughout.
As for “FAD synthase (Homo sapiens), Q8NFF5 R228H”, the “effect of a mutation on the interaction” value in the assay with prdc1_human PRTFDC1, with sdcb1_human SDCBP and with tri23_human TRIM23 was “with no effect” throughout.
On to “Protein S100-A2 (Homo sapiens), P29034 S62N”, for which the “effect of a mutation on the interaction” value with S100A1 is on record as “with no effect”.
Take “Thioredoxin domain-containing protein 12 (Homo sapiens), O95881 T80M”: the “effect of a mutation on the interaction” value in the assay with ubql1_human UBQLN1 was “with no effect”.
Turning to “Atypical kinase COQ8A, mitochondrial (Homo sapiens), Q8NI60 D100Y”, the “effect of a mutation on the interaction” value in the assay with atrap_human AGTRAP, with reep6_human REEP6 and with tfp11_human TFIP11 was “with no effect” in each case.
“Troponin T, slow skeletal muscle (Homo sapiens), P13805 R39S”: the “effect of a mutation on the interaction” value with jkip2_human JAKMIP2, with nf2l2_human NFE2L2 and with ccdb1_human CCNDBP1 was “with no effect” in each case.
“Protein N-terminal glutamine amidohydrolase (Homo sapiens), Q96HA8 A52G”: the “effect of a mutation on the interaction” value with pygm_human PYGM, with lztl1_human LZTFL1, with ei2ba_human EIF2B1, with cdd_human CDA, with dhb14_human HSD17B14 and in the assay with dctp1_human DCTPP1 was “with no effect” in each case. In addition, the “effect of a mutation on the interaction” value with actg_human ACTG1, with tolip_human TOLLIP, with rpia_human RPIA, in the assay with nud14_human NUDT14, with mtnb_human APIP and with CCDC102B was “with no effect” throughout. Also, the “effect of a mutation on the interaction” value in the assay with lonf1_human LONRF1, with pnma1_human PNMA1, in the assay with actb_human ACTB, in the assay with pnma5_human PNMA5, in the assay with cryaa_human CRYAA and with prps2_human PRPS2 was “with no effect” each time. In addition, the “effect of a mutation on the interaction” value in the assay with dnja3_human DNAJA3, in the assay with mif_human MIF, with ca050_human C1orf50, in the assay with gnmt_human GNMT, with TSC22D1 and in the assay with kctd1_human KCTD1 was “with no effect” throughout. Besides, the “effect of a mutation on the interaction” value with mbip1_human MBIP, with frih_human FTH1 [1], with ncoa5_human NCOA5, in the assay with thap1_human THAP1, with birc2_human BIRC2 and in the assay with vac14_human VAC14 was “with no effect” in each case. Moreover, the “effect of a mutation on the interaction” value with edad_human EDARADD, in the assay with ndka_human NME1, with gas7_human GAS7 and with cdr2_human CDR2 was “with no effect” each time.
For “Transcription factor SOX-14 (Homo sapiens), O95416 A107G”, the “effect of a mutation on the interaction” value with naif1_human NAIF1 was “with no effect”.
For “RNA-binding protein FXR2 (Homo sapiens), P51116 K651E”, the “effect of a mutation on the interaction” value in the assay with cdkl3_human CDKL3 was “with no effect”; with FBP1 it was “disrupting interaction strength”; with ptps_human PTS, “with no effect”; in the assay with scel_human SCEL it was “with no effect”; with phs_human PCBD1, “with no effect”; in the assay with lcp2_human LCP2 it was “with no effect”. Further, the “effect of a mutation on the interaction” value with ap2m1_human AP2M1, with pram_human PRAM1, in the assay with tb22b_human TBC1D22B and with frih_human FTH1 [2] was “with no effect” each time.
